Experimental data taken from paper PMC12720783.

Target: LcrG, full length (Yersinia pseudotuberculosis) (UniProt P69958)
Experiment: ITC

Sequence of LcrV, full length (P23994 whole entry): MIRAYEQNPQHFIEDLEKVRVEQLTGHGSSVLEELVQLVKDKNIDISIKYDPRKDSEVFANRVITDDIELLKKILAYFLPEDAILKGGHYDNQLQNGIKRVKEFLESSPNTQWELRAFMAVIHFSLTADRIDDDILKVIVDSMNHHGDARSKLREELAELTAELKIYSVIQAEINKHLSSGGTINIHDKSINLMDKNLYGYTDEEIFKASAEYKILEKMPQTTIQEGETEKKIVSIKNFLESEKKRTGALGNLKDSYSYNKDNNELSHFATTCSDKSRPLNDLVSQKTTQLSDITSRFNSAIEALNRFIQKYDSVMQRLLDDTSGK
Sequence of LcrG, full length (Yersinia pseudotuberculosis) (P69958 whole entry): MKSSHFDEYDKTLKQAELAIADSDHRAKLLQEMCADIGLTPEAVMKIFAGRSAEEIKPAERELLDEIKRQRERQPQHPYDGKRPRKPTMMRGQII

**Q.** How did the stoichiometry N turn out when “LcrV, full length (from UniProt P23994 1-326) (natural protein)” was run?
**A.** 1
